# B1: Protein ECT2 (Homo sapiens), Q9H8V3 (parent)
# chain: MAENSVLTSTTGRTSLADSSIFDSKVTEISKENLLIGSTSYVEEEMPQIETRVILVQEAGKQEELIKALKTIKIMEVPVIKIKESCPGKSDEKLIKSVINMDIKVGFVKMESVEEFEGLDSPEFENVFVVTDFQDSVFNDLYKADCRVIGPPVVLNCSQKGEPLPFSCRPLYCTSMMNLVLCFTGFRKKEELVRLVTLVHHMGGVIRKDFNSKVTHLVANCTQGEKFRVAVSLGTPIMKPEWIYKAWERRNEQDFYAAVDDFRNEFKVPPFQDCILSFLGFSDEEKTNMEEMTEMQGGKYLPLGDERCTHLVVEENIVKDLPFEPSKKLYVVKQEWFWGSIQMDARAGETMYLYEKANTPELKKSVSMLSLNTPNSNRKRRRLKETLAQLSRETDVSPFPPRKRPSAEHSLSIGSLLDISNTPESSINYGDTPKSCTKSSKSSTPVPSKQSARWQVAKELYQTESNYVNILATIIQLFQVPLEEEGQRGGPILAPEEIKTIFGSIPDIFDVHTKIKDDLEDLIVNWDESKSIGDIFLKYSKDLVKTYPPFVNFFEMSKETIIKCEKQKPRFHAFLKINQAKPECGRQSLVELLIRPVQRLPSVALLLNDLKKHTADENPDKSTLEKAIGSLKEVMTHINEDKRKTEAQKQIFDVVYEVDGCPANLLSSHRSLVQRVETISLGEHPCDRGEQVTLFLFNDCLEIARKRHKVIGTFRSPHGQTRPPASLKHIHLMPLSQIKKVLDIRETEDCHNAFALLVRPPTEQANVLLSFQMTSDELPKENWLKMLCRHVANTICKADAENLIYTADPESFEVNTKDMDSTLSRASRAIKKTSKKVTRAFSFSKTPKRALRRALMTSHGSVEGRSPSSNDKHVMSRLSSTSSLAGIPSPSLVSLPSFFERRSHTLSRSTTHLI
# partner: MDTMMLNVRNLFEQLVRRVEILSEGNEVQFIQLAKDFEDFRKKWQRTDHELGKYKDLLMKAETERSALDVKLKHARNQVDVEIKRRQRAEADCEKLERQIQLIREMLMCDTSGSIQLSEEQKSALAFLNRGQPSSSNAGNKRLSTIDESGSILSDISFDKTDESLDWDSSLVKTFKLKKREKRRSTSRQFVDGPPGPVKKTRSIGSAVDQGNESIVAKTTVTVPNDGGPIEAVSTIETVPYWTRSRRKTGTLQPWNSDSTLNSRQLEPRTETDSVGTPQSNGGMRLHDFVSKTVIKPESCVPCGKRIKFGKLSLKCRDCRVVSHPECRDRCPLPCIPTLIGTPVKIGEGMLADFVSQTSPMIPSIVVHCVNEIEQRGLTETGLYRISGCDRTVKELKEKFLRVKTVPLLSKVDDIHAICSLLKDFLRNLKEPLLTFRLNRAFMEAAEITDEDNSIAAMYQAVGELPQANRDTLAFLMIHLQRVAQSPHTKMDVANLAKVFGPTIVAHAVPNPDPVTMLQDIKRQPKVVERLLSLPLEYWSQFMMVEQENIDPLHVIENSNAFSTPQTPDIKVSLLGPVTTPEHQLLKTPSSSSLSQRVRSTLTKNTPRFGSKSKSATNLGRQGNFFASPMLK
# B2: Rac GTPase-activating protein 1 (Homo sapiens), Q9H0H5 (parent)
# chain: B1 partner
# partner: B1 chain
# Variants of: B1
# Conditions: with rgap1_human RACGAP1, Q9H0H5
row,effect of a mutation on the interaction,Variant
1,disrupting interaction,L195M

# Variants of: B1
# Conditions: with rgap1_human RACGAP1, Q9H0H5
# Remark: another data set of the same source
row,effect of a mutation on the interaction,Variant
1,disrupting interaction,V153A;L195M

# Variants of: B1
# Conditions: with rgap1_human RACGAP1, Q9H0H5
# Remark: another data set of the same source
row,effect of a mutation on the interaction,Variant
1,decreasing interaction,P163E

# Variants of: B1
# Conditions: with rgap1_human RACGAP1, Q9H0H5
# Remark: another data set of the same source
row,effect of a mutation on the interaction,Variant
1,decreasing interaction,V153A

# Variants of: B2
# Conditions: with ect2_human ECT2, Q9H8V3
row,effect of a mutation on the interaction,Variant
1,decreasing interaction,W167A

# Reference: IntAct's records for PubMed 25068414
